Reference: patent US20110189172A1

Target: IL-1 receptor (human) (UniProt P14778)
Assay: cell-based or functional assay

Sequence of UniProt P14778 (P14778 18-569): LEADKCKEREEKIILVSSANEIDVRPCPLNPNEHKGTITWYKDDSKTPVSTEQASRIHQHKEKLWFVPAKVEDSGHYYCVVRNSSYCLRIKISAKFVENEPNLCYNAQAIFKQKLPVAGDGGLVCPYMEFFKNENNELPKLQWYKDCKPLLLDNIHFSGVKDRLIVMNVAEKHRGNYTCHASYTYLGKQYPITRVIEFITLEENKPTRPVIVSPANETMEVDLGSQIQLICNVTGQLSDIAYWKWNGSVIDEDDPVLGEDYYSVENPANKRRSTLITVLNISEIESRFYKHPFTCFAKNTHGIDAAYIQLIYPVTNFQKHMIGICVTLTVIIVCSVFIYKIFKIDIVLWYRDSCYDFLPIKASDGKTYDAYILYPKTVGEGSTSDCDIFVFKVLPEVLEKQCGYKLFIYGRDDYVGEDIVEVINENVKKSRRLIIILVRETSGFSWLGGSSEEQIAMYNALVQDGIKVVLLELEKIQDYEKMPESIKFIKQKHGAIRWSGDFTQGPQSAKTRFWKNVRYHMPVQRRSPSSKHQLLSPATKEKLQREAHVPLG

“Kineret® (anakinra), recombinant IL-1 receptor antagonist (IL-1Ra) (from UniProt P18510 26-177) (ligand)” was tested, and the IC50 (pM), inhibition of IL-1β induced IL-8 production in human whole blood was 53.4 pM.
